Numbering of substitutions follows the chain as printed. Values belong to the binder of their own block, whether it stands above or below them.
Legend:
[1] = molecular target: T1, human MSLN (mesothelin) (human, UniProt Q13421 296-598); experiment: ELISA on human MSLN, B cell culture supernatant, 2nd screening
T1 construct: The construct coated on the plates is not described; also called human mesothelin

[2] = molecular target: T2, human CD73 (human, UniProt P21589 27-547, limits assumed); experiment: ELISA on control antigen human CD73, B cell culture supernatant, 2nd screening
T2 construct: also called control antigen
T2 sequence (looked up): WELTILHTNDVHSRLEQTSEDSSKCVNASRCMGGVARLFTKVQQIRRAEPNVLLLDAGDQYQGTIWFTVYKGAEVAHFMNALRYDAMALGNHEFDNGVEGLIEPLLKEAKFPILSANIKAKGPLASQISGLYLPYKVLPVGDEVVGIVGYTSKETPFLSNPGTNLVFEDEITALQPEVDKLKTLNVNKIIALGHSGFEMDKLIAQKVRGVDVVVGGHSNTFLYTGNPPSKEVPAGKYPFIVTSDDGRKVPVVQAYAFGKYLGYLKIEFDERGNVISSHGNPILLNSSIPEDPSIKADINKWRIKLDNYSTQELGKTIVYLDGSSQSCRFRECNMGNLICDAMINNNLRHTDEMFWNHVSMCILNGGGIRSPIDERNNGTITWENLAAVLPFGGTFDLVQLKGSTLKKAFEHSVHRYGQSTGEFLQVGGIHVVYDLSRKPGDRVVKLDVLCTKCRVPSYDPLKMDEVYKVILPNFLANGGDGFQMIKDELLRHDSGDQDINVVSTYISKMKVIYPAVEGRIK

[3] = molecular target: T2, human CD73; experiment: ELISA, B cell culture supernatant, 2nd screening
[4] = molecular target: T1, human MSLN (mesothelin); experiment: ELISA on human MSLN, B cell culture supernatant, 1st screening
[5] = molecular target: T3, human CA9 (carbonic anhydrase IX) (human, UniProt Q16790 38-414); experiment: BIAcore T100, mAb captured on anti-human IgG, antigen as analyte, 1:1 model; mAb purified by protein A (ProA); protein A (ProA) purified, not decapped
Experimental: (§1) Antibody concentrations were adjusted to generate 30-40 RU signal when bound to the antigen. […] The sensor surface was washed by injecting HBS-P buffer for 1 min at a flow rate of 50 μL/min. To record the antigen association to the captured mAb, a series of increasing concentrations of antigen was injected for 60 sec at a flow rate of 50 μL/min. The dissociation of antigen was monitored for 30 min at the same flow rate. The sensor surface was regenerated by injecting 3 M MgCl₂ for 1 min and then 30 sec at a flow rate of 30 μL/min. Sensograms were analyzed with Biacore T100 Evaluation Software using a 1:1 Langmuir binding model.
(§2) xi155D5 and the humanized variants were purified by standard protein A chromatography or the decapping method, and their affinity was analyzed using BIAcore (Table 13).

[6] = molecular target: T3, human CA9 (carbonic anhydrase IX); experiment: BIAcore T100, mAb captured on anti-human IgG, antigen as analyte, 1:1 model; mAb purified by protein A (ProA)
Experimental: as §1, §2

[7] = molecular target: T3, human CA9 (carbonic anhydrase IX); experiment: SPR (BIAcore), biotin-CA9 captured on CAP chip, antibody 0-50 nM as analyte
Experimental: To determine if chimerization, and therefore the loss of Cys80-Cys171 disulfide bond, results in structural perturbations leading to loss of antigen binding, the binding affinity of mAbs 155D5, xi155D5, 1-55-2, and xi1-55-2 by surface plasmon resonance was evaluated. Biotinylated ligand (biotin-hTEM1 for 1-55-2, biotin-CA9 for 155D5) was captured on a coated biotin CAP BIAcore chip (GE Healthcare, Piscataway, N.J.) using HBS-EP as running buffer. Final antigen capture levels were 130 RU and 280 RU, respectively, for biotin-TEM1 and biotin-CA9. Serial dilutions of antibody (120 μL of 0-50 nM) were passed over the ligand-coated chip. […] The chip surface was regenerated with 6 M GuHCl, 250 mM NaOH. Sensograms were double referenced and kinetic parameters were determined using BIAEvaluations software (ver. 4.1).

T1 sequence (Q13421 other isoform, or with tags, fused parts or gaps limits assumed, form in doubt): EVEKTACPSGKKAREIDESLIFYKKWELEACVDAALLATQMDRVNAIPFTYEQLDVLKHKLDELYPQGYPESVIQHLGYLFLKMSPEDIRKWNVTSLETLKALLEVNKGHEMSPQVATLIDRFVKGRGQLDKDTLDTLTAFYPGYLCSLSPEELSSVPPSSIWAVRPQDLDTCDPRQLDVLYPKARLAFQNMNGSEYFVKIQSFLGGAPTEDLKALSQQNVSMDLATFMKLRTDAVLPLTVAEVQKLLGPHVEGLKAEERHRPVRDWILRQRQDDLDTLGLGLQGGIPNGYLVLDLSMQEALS

- Optical Density (Anti-MSLN reactivity, 2nd screening) [1]: 0.296 OD
- Optical Density (Anti-CD73 reactivity, 2nd screening) [2]: 0.0744 OD
- binding result [3]: no binding
- Optical Density (Anti-MSLN reactivity, 1st screening) [4]: 0.249 OD
B1: 383I18 (rabbit anti-MSLN mAb) (antibody, V domains shown)
VH: QSVEESGGRLVTPGTPLTLTCTVSGFSLSSYAMGWVRQAPGEGLEWIGTISTGGITYYASWAKGRFTISKTSTTVDLKITSPTTEDTATYFCARVGSSGYLFYFFNLWGQGTLVTVSS
VL: VFELTQTPSPVSAAVGGTVTIRCQASQNIKSYLAWYQQKPGQPPKLLIYEASILASGVSSRFKGSGSGTEFTLTISDLECADAATYYCQSYYAASSNAFGGGTEVVVK

- Optical Density (Anti-MSLN reactivity, 2nd screening) [1]: 0.504 OD
- Optical Density (Anti-CD73 reactivity, 2nd screening) [2]: 0.0818 OD
- binding result [3]: no binding
- Optical Density (Anti-MSLN reactivity, 1st screening) [4]: 0.282 OD
B2: 33O11 (rabbit anti-MSLN mAb) (antibody, V domains shown)
VH: QSVEESGGRLVTPGTPLTLTCTVSGISLSSDAISWVRQAPGKGLEYIGIINGGGNTYYASWAKGRFTISKTSTTVDLKITSPTTEDTATYFCARGIQHGGGNSDYYYYGMDLWGPGTLVTVSS
VL: EVLMTQTPSSVSAAVGDTVTIKCQASQSISSVLSWYQQKPGQPPKLLIYLASTLASGVPSRFSGSRSGTEFTLTISDLECDDAATYYCQTNYGTSSSNYGFAFGGGTEVVVK

- kon [5]: 458000 M⁻¹ s⁻¹
- Kd [6]: 0.324 nM
- koff [6]: 0.000149 s⁻¹
- Kd [7]: 0.051 nM
- koff [7]: 2.4e-05 s⁻¹
- kon [7]: 460000 M⁻¹ s⁻¹
B3: xi155D5 (rabbit/human chimerized 155D5 mAb) (antibody, human IgG1, kappa, V domains shown)
VH: QSVKESGGRLVTPGTPLTLTCTVSGFSLNSYAMIWVRQAPGEGLEYIGFITTGGTTYYASWAKGRFTISRTSTTVDLKLTRPTTEDTATYFCARDRVKSYDDYGDLDAFEPWGPGTLVTISS
VL: ELVMTQTPSSVSAAVGGTVTINCQASQSISSYLAWYQQKPGQPPKLLIYYASTLASGVPSRFKGSGSGTEFTLTITGVQCDDAATYYCLGVYGYSFDDGIAFGGGTELEIKR
notes: Human IgG1 kappa constant regions; Unpaired Cys80 of the light chain is capped by a free cysteine after plain protein A purification; also called xi155D5 mAb

- Optical Density (Anti-MSLN reactivity, 2nd screening) [1]: 1.88 OD
- Optical Density (Anti-CD73 reactivity, 2nd screening) [2]: 0.141 OD
- binding result [3]: no binding
- Optical Density (Anti-MSLN reactivity, 1st screening) [4]: 0.966 OD
B4: 178F16 (rabbit anti-MSLN mAb) (antibody, V domains shown)
VH: QSLEESGGRLVTPGTPLTLTCTASGFSLSNYAMTWVRQAPGKGLEYIGIISTGGITYYMDSAKGRFTISRTSTTVDLKMTSLTTEDTATYFCGRNAGGSYIFYYFDLWGQGTLVTVSS
VL: AFELTQTPSSVEAAVGGTVTIKCQASQSIYSYLAWYQQKPGQPPKLLIYSASTLASGVSSRFRGSGSGTEYILTISDLECADAATYYCQTYYDIVTSTFGGGTEVVVK

- Optical Density (Anti-MSLN reactivity, 2nd screening) [1]: 2.22 OD
- Optical Density (Anti-CD73 reactivity, 2nd screening) [2]: 0.0801 OD
- binding result [3]: no binding
- Optical Density (Anti-MSLN reactivity, 1st screening) [4]: 1.4 OD
B5: 324O5 (rabbit anti-MSLN mAb) (antibody, V domains shown)
VH: B4 VH
VL: B4 VL with I72T

- Optical Density (Anti-MSLN reactivity, 2nd screening) [1]: 0.668 OD
- Optical Density (Anti-CD73 reactivity, 2nd screening) [2]: 0.0918 OD
- binding result [3]: no binding
- Optical Density (Anti-MSLN reactivity, 1st screening) [4]: 0.362 OD
B6: 237N18 (rabbit anti-MSLN mAb) (antibody, V domains shown)
VH: QSLEESGGRLVAPGTPLTLTCTVSGFSLSSYHMSWVRQAPGEGLEWIGGITAMSRTYYASWAKGRFTISKTSTTVHLKITSPTTEDTATYFCAREPGFVSNIWGPGTLVTVSL
VL: AVVLTQTASPVSGVVGGTVTIKCQASQNIYSNLAWYQQKPGQRPKLLMYDASTLASGVPSRFKGSGSGTQFTLTISDLECADAATYYCQSISSVDNNVFGGGTEVVVK
